Columns and labels:
[1] = biological target: T1, DEN2 cNS2B-NS3pro complex (Dengue virus 2 (DEN2 / DENV-2), UniProt P14340 1394-1440; P14340 1476-1660); assay: cell-based or functional assay
T1 sequence 1: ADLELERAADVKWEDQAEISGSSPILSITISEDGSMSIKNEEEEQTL
T1 sequence 2: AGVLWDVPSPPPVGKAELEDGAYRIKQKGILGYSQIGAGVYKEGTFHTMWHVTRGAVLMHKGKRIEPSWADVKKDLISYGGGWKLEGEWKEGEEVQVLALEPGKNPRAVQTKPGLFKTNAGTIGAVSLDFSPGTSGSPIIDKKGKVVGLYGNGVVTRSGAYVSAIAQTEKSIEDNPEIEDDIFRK

[2] = biological target: T1, DEN2 cNS2B-NS3pro complex

B1: RetroMAD1 (other)
chain: MGRICRCICGRGICRCICGVPGVGVPGVGGATGSDVNFDLSTATAKTYTKFIEDFRATLPFSHKVYDIPLLYSTISDSRRFILLDLTSYAYETISVAIDVTNVYVVAYRTRDVSYFFKESPPEAYNILFKGTRKITLPYTGNYENLQTAAHKIRENIDLGLPALSSAITTLFYYNAQSAPSALLVLIQTTAEAARFKYIERHVAKYVATNFKPNLAIISLENQWSALSKQIFLAQNQGGKFRNPVDLIKPTGERFQVTNVDSDVVKGNIKLLLNSRASTADENFITTMTLLGESVVEFPWALWKTMLKELGTMALHAGKAALGAAADTISQGTQVPGVGVPGVGKLAAALEHHHHHH
IC50 of NS2B-NS3 protease inhibition [1]: 4.99 µM
Ki [2]: 2490 nM
